Test results from patent US20240092891A1 (SANYOU BIOPHARMACEUTICALS, published 2024).

Assays:
human CLDN18.1 [1] = biological target: T1, human CLDN18.1 (human, UniProt P56856 1-261); assay: flow cytometry, binding intensity on human CLDN18.1-HEK293 cells at different concentrations
T1 construct: Overexpressed on HEK293 cells; also called human CLDN18.1-HEK293
Procedure: Therefore, antibodies (including a high concentration of 100 μg/mL) at different concentrations were used to be incubated with human CLDN18.1-HEK293 in vitro in this example. The method was as described in section 1.3.1, wherein antibodies at different concentrations were incubated with target cells human CLDN18.1-HEK293 at 4° C. for 1 h. Next, the resulting cultures were rinsed three times with the above-mentioned FACS buffer. 0.5 μg (0.5 mg/ml) of PE-labeled goat anti-human IgG Fc antibody (Abcam, ab98596) was added, and the resulting mixture was incubated at 4° C. for 1 h, and then rinsed three times with the FACS buffer.

human CLDN18.2 [2] = biological target: T2, human CLDN18.2 (human); assay: flow cytometry on human CLDN18.2-HEK293T cells
T2 construct: also called CLD18A2; huCLDN18.2

human CLDN18.1 [3] = biological target: T1, human CLDN18.1; assay: flow cytometry with phage supernatant, anti-M13 antibody, on human CLDN18.1-HEK293 cells
Source text: Firstly, 1×10⁵ human CLDN18.2-HEK293T and human CLDN18.1-HEK293 cells were taken, respectively and centrifuged at a low speed of 500 g, and the supernatant was removed.

human CLDN18.2 [4] = biological target: T2, human CLDN18.2; assay: cell-based or functional assay

T1 sequence (P56856 whole entry): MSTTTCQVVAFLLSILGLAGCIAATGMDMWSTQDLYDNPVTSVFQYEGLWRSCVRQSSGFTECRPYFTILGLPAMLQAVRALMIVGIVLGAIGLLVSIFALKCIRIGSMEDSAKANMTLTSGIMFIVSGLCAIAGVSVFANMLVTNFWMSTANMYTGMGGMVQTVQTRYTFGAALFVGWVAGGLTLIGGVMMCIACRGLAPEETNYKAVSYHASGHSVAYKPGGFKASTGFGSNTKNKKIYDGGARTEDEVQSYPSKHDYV

B1: humanized antibody NA4-S-H7 (Fc fusion)
chain: EVQLVESGGGLVQPGGSLRLSCAASGSIFSINVMGWYRQAPGKQRELVAGISTGGTTRYADSVKGRFTISRDNAKNTLYLQMNSLRAEDTAVYYCNADLATATSWPVRYLEVWGQGTLVTVSS
notes: not shown: Fc part implied (detected with anti-human IgG Fc; parent molecule in CDC/ADCC)
binding result (human CLDN18.1 [1]): no binding (tested: 100 µg/mL)
EC50 (human CLDN18.2 [2]): 0.877 µg/mL
binding intensity (MFI) at the highest concentration (human CLDN18.2 [2]): 128000 MFI

B2: clone NA4-S, VHH displayed on phage (VHH)
VHH: EVQVVESGGGLVQPGGSLRLSCAASGSIFSINVMGWYRQAPGKQRELVAGISTGGTTRYADSAKGRFTISRDNAKNTVYLQMNSLKPEDTAVYYCNADLATATSWPVRYLEVWGQGTLVTVSA
notes: also called NA4-S (phage supernatant); candidate nanobody NA4-S
binding result (human CLDN18.1 [3]): no binding

B3: IMAB362 antibody (antibody, V domains shown)
VH: QVQLQQPGAELVRPGASVKLSCKASGYTFTSYWINWVKQRPGQGLEWIGNIYPSDSYTNYNQKFKDKATLTVDKSSSTAYMQLSSPTSEDSAVYYCTRSWRGNSFDYWGQGTTLTVSS
VL: DIVMTQSPSSLTVTAGEKVTMSCKSSQSLLNSGNQKNYLTWYQQKPGQPPKLLIYWASTRESGVPDRFTGSGSGTDFTLTISSVQAEDLAVYYCQNDYSYPFTFGSGTKLEIKR
EC50 of ADCC cell killing effect (LDH release, human PBMC) on human CLDN18.2-HEK293T cells, run with NA7-S (human CLDN18.2 [4]): 0.0862 nM
EC50 of ADCC cell killing effect (LDH release, human PBMC) on human CLDN18.2-HEK293T cells, run with NA8-S (human CLDN18.2 [4]): 0.0636 nM
EC50 of CDC cell killing effect (MTS) on human CLDN18.2-HEK293T cells, run with NA4-S (human CLDN18.2 [4]): 0.613 nM
EC50 of CDC cell killing effect (MTS) on human CLDN18.2-HEK293T cells, run with NA7-S (human CLDN18.2 [4]): 0.628 nM
EC50 of CDC cell killing effect (MTS) on human CLDN18.2-HEK293T cells, run with NA8-S (human CLDN18.2 [4]): 1.86 nM
EC50 of CDC cell killing effect (MTS) on human CLDN18.2-KATOIII tumor cells, run with NA7-S (human CLDN18.2 [4]): 69.8 nM
EC50 of CDC cell killing effect (MTS) on human CLDN18.2-KATOIII tumor cells, run with NA8-S (human CLDN18.2 [4]): 1860 nM
IC50 of Fab-ZAP cell killing (endocytosis, MTS) on CLDN18.2-HEK293T cells, run with NA7-S (human CLDN18.2 [4]): 0.128 nM
IC50 of Fab-ZAP cell killing (endocytosis, MTS) on CLDN18.2-HEK293T cells, run with NA8-S (human CLDN18.2 [4]): 0.136 nM

B4: clone NA7-S, VHH displayed on phage (VHH)
VHH: EVQVQESGGGLVQPGGSLRLSCAASGSFFRIVAMGWYRQAPGSQRELVATITRGGSTYYADSMKGRSTISRDNAKNTVYLQMNSLKPEDTAVYYCNVRVEVPFMQPNDYWGHGTQVTVSS
notes: also called NA7-S (phage supernatant); candidate nanobody NA7-S
binding result (human CLDN18.1 [3]): no binding

B5: humanized antibody NA7-S-H2 (Fc fusion)
chain: EVQLVESGGGLVQPGGSLRLSCAASGSFFRIVAMGWYRQAPGKGRELVATITRGGSTYYADSMKGRSTISRDNAKNTVYLQMNSLKPEDTAVYYCNVRVEVPFMQPNDYWGQGTLVTVSS
notes: as for B1
EC50 (human CLDN18.2 [2]): 0.482 µg/mL
binding intensity (MFI) at the highest concentration (human CLDN18.2 [2]): 184000 MFI
